Assay results taken from the supplement of paper PMC10724198.
± gives the standard deviation of the averaged measurements.

Columns and labels:
[1] = tested on: Saccharomyces cerevisiae; test: protein stability index of tFT-peptide fusion (C-terminal peptide) (PSI (0-1 scale)); higher = more stable (slower turnover)
Protocol: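 MPS profiling in S. cerevisiae of the tFT-X12 degron library: putative degron peptides plus stable controls, 12 aa, fused to the C-terminus of a sfGFP-mCherry timer. Cells are FACS-sorted into 8 mCherry/sfGFP bins and deep-sequenced. PSI runs from 0 (unstable) to 1 (stable). Backgrounds are wild type, das1Δ and doa10Δ at 30 °C, and wild type, das1Δ, cdc34-1 and cdc53-1 at 37 °C; 2-3 technical replicates each.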

[2] = tested on: Saccharomyces cerevisiae; test: as above; conditions: genetic background: wild type; temperature: 30 C
[3] = genetic background: cdc34-1, temperature: 37 C
[4] = genetic background: cdc53-1, temperature: 37 C
[5] = genetic background: das1 deletion, temperature: 30 C
[6] = genetic background: das1 deletion, temperature: 37 C
[7] = genetic background: doa10 deletion, temperature: 30 C
[8] = genetic background: wild type, temperature: 30 C
[9] = genetic background: wild type, temperature: 37 C
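Also: PSI is a weighted mean of sequencing reads over stability bins, variants kept only with over 10 reads, mCherry proximal and sfGFP distal, peptide attached via GGGS linker.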

| Sequence | protein stability index [1, 3] | protein stability index [1, 4] | protein stability index [1, 5] | protein stability index [1, 6] | protein stability index [1, 7] | protein stability index [1, 8] | protein stability index [1, 9] | protein stability index [2] |
| --- | --- | --- | --- | --- | --- | --- | --- | --- |
| FRFSCLFSLFLS | 0.413 ± 0.072 | 0.499 ± 0.01 | 0.478 ± 0.029 | 0.5168 ± 0.0051 | 0.169 ± 0.0091 | 0.143 ± 0.036 | 0.24 ± 0.025 | 0.224 ± 0.011 |
| RFHTFVFCLLCL | 0.407 ± 0.062 | 0.438 ± 0.018 | 0.432 ± 0.02 | 0.516 ± 0.026 | 0.2796 ± 0.00049 | 0.277 ± 0.015 | 0.386 ± 0.015 | 0.328 ± 0.06 |
| CPPPPPSLLLLC | 0.531 ± 0.025 | 0.6762 ± 0.0035 | 0.591 ± 0.012 | 0.666 ± 0.011 | 0.168 ± 0.0086 | 0.19 ± 0.013 | 0.29753 ± 0.00015 | 0.223 ± 0.0038 |
| DYSVIPSLALLP | 0.692 ± 0.013 | 0.73118 ± 3.3e-05 | 0.657 ± 0.028 | 0.733 ± 0.015 | 0.669 ± 0.022 | 0.673 ± 0.0088 | 0.714 ± 0.02 | 0.218 ± 0.021 |
| VGTIVLTCIEVN | 0.0595 ± 0.022 | 0.0586 ± 0.013 | 0.191 ± 0.022 | 0.22 ± 0.0081 | 0.1519 ± 0.00081 | 0.187 ± 0.011 | 0.205 ± 0.0017 | 0.279 ± 0.017 |
| SLCSRLVVVAWF | 0.531 ± 0.017 | 0.599 ± 0.026 | 0.432 ± 0.026 | 0.608 ± 0.014 | 0.374 ± 0.035 | 0.386 ± 0.0062 | 0.553 ± 0.026 | 0.494 ± 0.024 |
| RRVLVVPCIWHM | 0.653 ± 0.031 | 0.73 ± 0.011 | 0.604 ± 0.015 | 0.673 ± 0.048 | 0.174 ± 0.026 | 0.223 ± 0.022 | 0.416 ± 0.022 | 0.327 ± 0.0065 |
| VCSRWFFVFVVR | 0.402 ± 0.033 | 0.424 ± 0.043 | 0.331 ± 0.035 | 0.523 ± 0.014 | 0.409 ± 0.014 | 0.291 ± 0.051 | 0.4917 ± 0.0013 | 0.388 ± 0.011 |
| LLSFSQLGYFVL | 0.634 ± 0.056 | 0.716 ± 0.012 | 0.633 ± 0.034 | 0.738 ± 0.023 | 0.13 ± 0.0051 | 0.152 ± 0.039 | 0.335 ± 0.027 | 0.212 ± 0.04 |
| FGFFRLVIVCFR | 0.135 ± 0.046 | 0.19 ± 0.021 | 0.175 ± 0.032 | 0.313 ± 0.0089 | 0.176 ± 0.017 | 0.172 ± 0.019 | 0.283 ± 0.013 | 0.31 ± 0.16 |
| LLLIGISFLIFY | 0.184 ± 0.048 | 0.287 ± 0.0035 | 0.208 ± 0.029 | 0.385 ± 0.008 | 0.199 ± 0.025 | 0.21 ± 0.025 | 0.335 ± 0.052 | 0.352 ± 0.05 |
| RARRFGKWERSG | 0.644 ± 0.032 | 0.761 ± 0.025 | 0.639 ± 0.013 | 0.731 ± 0.024 | 0.33 ± 0.03 | 0.377 ± 0.03 | 0.544 ± 0.0099 | 0.4453 ± 0.0039 |
| LLFGCLIRIGCS | 0.268 ± 0.017 | 0.307 ± 0.012 | 0.244 ± 0.048 | 0.403 ± 0.021 | 0.225 ± 0.0046 | 0.253 ± 0.03 | 0.3638 ± 0.00063 | 0.35 ± 0.051 |
| DDVRFLLWGLCC | 0.48 ± 0.022 | 0.459 ± 0.018 | 0.398 ± 0.024 | 0.5595 ± 0.0051 | 0.183 ± 0.0027 | 0.218 ± 0.019 | 0.3644 ± 0.0027 | 0.324 ± 0.027 |
| GGVWLSVVSWVG | 0.156 ± 0.0086 | 0.238 ± 0.03 | 0.0995 ± 0.024 | 0.256 ± 0.012 | 0.0676 ± 0.00079 | 0.0976 ± 0.011 | 0.244 ± 0.0053 | 0.167 ± 0.021 |
| VFDFVFHLRFVV | 0.336 ± 0.032 | 0.419 ± 0.0096 | 0.427 ± 0.028 | 0.468 ± 0.0082 | 0.091 ± 0.019 | 0.0905 ± 0.025 | 0.117 ± 0.011 | 0.1155 ± 0.00063 |
| FLLFSFFFFFFF | 0.44531 ± 9.3e-05 | 0.4388 ± 0.0028 | 0.409 ± 0.041 | 0.52 ± 0.013 | 0.489 ± 0.037 | 0.384 ± 0.021 | 0.488 ± 0.008 | 0.482 ± 0.011 |
| TKGIIKKINIIM | 0.624 ± 0.14 | 0.73 ± 0.039 | 0.617 ± 0.016 | 0.724 ± 0.0084 | 0.154 ± 0.0088 | 0.206 ± 0.035 | 0.467 ± 0.09 | 0.36 ± 0.014 |
| ECLRLTTKKKIN | 0.581 ± 0.079 | 0.733 ± 0.069 | 0.657 ± 0.055 | 0.704 ± 0.032 | 0.133 ± 0.0031 | 0.146 ± 0.039 | 0.197 ± 0.088 | 0.173 ± 0.011 |
| CFTLSLCLAFFF | 0.41 ± 0.026 | 0.455 ± 0.013 | 0.403 ± 0.03 | 0.433 ± 0.0072 | 0.324 ± 0.017 | 0.334 ± 0.026 | 0.4091 ± 0.0024 | 0.377 ± 0.014 |

| Sequence | protein stability index [1, 3] | protein stability index [1, 4] | protein stability index [1, 5] | protein stability index [1, 6] | protein stability index [1, 7] | protein stability index [1, 8] | protein stability index [1, 9] | protein stability index [2] |
| --- | --- | --- | --- | --- | --- | --- | --- | --- |
| PCLLRYLVHPFP | 0.687 ± 0.026 | 0.765 ± 0.021 | 0.648 ± 0.014 | 0.7439 ± 0.0017 | 0.65 ± 0.013 | 0.667 ± 0.0086 | 0.7159 ± 0.0025 | 0.75445 ± 0.00044 |
| YYKGGYLYLRLS | 0.398 ± 0.031 | 0.4395 ± 0.0037 | 0.454 ± 0.029 | 0.607 ± 0.035 | 0.171 ± 0.0093 | 0.15 ± 0.018 | 0.316 ± 0.036 | 0.253 ± 0.015 |
| FFRPWRLVGCLV | 0.263 ± 0.0038 | 0.312 ± 0.011 | 0.265 ± 0.024 | 0.3692 ± 0.0036 | 0.189 ± 0.017 | 0.215 ± 0.018 | 0.266 ± 0.02 | 0.331 ± 0.065 |
| CPALYMPPPVLV | 0.114 ± 0.036 | 0.13 ± 0.012 | 0.191 ± 0.026 | 0.238 ± 0.01 | 0.14 ± 0.03 | 0.182 ± 0.015 | 0.215 ± 0.0041 | 0.2594 ± 0.0017 |
| LIICRSFLCKVR | 0.236 ± 0.026 | 0.2557 ± 0.0016 | 0.193 ± 0.029 | 0.369 ± 0.0059 | 0.16 ± 0.0049 | 0.174 ± 0.023 | 0.317 ± 0.0052 | 0.3 ± 0.01 |
| MIILGFILYFFW | 0.4 ± 0.011 | 0.533 ± 0.03 | 0.332 ± 0.035 | 0.505 ± 0.018 | 0.352 ± 0.04 | 0.347 ± 0.034 | 0.444 ± 0.018 | 0.422 ± 0.033 |
| CALLLLSVRAGQ | 0.5373 ± 0.00093 | 0.57 ± 0.02 | 0.432 ± 0.04 | 0.5912 ± 0.0029 | 0.415 ± 0.032 | 0.433 ± 0.024 | 0.565 ± 0.02 | 0.474 ± 0.019 |
| SIFWWWLVFILG | 0.469 ± 0.0093 | 0.4759 ± 0.0034 | 0.362 ± 0.02 | 0.502 ± 0.008 | 0.366 ± 0.018 | 0.368 ± 0.026 | 0.462 ± 0.011 | 0.418 ± 0.085 |
| GCGFSFFHIVVL | 0.111 ± 0.0053 | 0.113 ± 0.0037 | 0.147 ± 0.04 | 0.256 ± 0.024 | 0.416 ± 0.0071 | 0.152 ± 0.022 | 0.225 ± 0.0047 | 0.121 ± 0.0051 |
| LILIVVVAGSVG | 0.201 ± 0.019 | 0.392 ± 0.088 | 0.226 ± 0.027 | 0.437 ± 0.0066 | 0.206 ± 0.014 | 0.23 ± 0.013 | 0.385 ± 0.015 | 0.269 ± 0.038 |
| VCLLGWGVRLVS | 0.667 ± 0.031 | 0.7294 ± 0.0045 | 0.609 ± 0.038 | 0.72374 ± 7.5e-05 | 0.321 ± 0.0052 | 0.371 ± 0.023 | 0.576 ± 0.01 | 0.505 ± 0.079 |
| ARRFLVRRFILF | 0.545 ± 0.019 | 0.65822 ± 0.00018 | 0.586 ± 0.0066 | 0.683 ± 0.026 | 0.187 ± 0.018 | 0.189 ± 0.021 | 0.326 ± 0.033 | 0.282 ± 0.0087 |
| EVGFHRRWVALS | 0.612 ± 0.052 | 0.7235 ± 0.007 | 0.65 ± 0.015 | 0.737 ± 0.019 | 0.114 ± 0.02 | 0.141 ± 0.016 | 0.275 ± 0.053 | 0.189 ± 0.0082 |
| CIVFVYCLFSCP | 0.206 ± 0.0051 | 0.301 ± 0.038 | 0.213 ± 0.024 | 0.406 ± 0.041 | 0.209 ± 0.0024 | 0.207 ± 0.036 | 0.332 ± 0.027 | 0.32 ± 0.0041 |
| AGVRCPLFWLVC | 0.461 ± 0.049 | 0.622 ± 0.032 | 0.498 ± 0.033 | 0.632 ± 0.013 | 0.131 ± 0.012 | 0.138 ± 0.0075 | 0.148 ± 0.01 | 0.156 ± 0.0027 |
| WFLLSLSSFVSS | 0.427 ± 0.03 | 0.415 ± 0.11 | 0.363 ± 0.023 | 0.469 ± 0.0061 | 0.358 ± 0.037 | 0.351 ± 0.0038 | 0.4555 ± 0.00088 | 0.427 ± 0.015 |
| GVQFRRPLIPIY | 0.514 ± 0.0065 | 0.4877 ± 0.0027 | 0.358 ± 0.03 | 0.5467 ± 0.0036 | 0.325 ± 0.011 | 0.35 ± 0.025 | 0.517 ± 0.0099 | 0.445 ± 0.082 |
| NFKELMEKSKYR | 0.704 ± 0.02 | 0.752 ± 0.029 | 0.677 ± 0.019 | 0.763 ± 0.028 | 0.677 ± 0.061 | 0.665 ± 0.027 | 0.718 ± 0.012 | 0.719 ± 0.018 |
| TRHIGQYIHKIT | 0.641 ± 0.048 | 0.734 ± 0.027 | 0.635 ± 0.027 | 0.694 ± 0.037 | 0.151 ± 0.0037 | 0.233 ± 0.049 | 0.436 ± 0.0061 | 0.339 ± 0.081 |
